In patent publication US20230192860A1 (Bristol-Myers Squibb, published 2023):
Changes are numbered by the printed parent chain. Names may count otherwise.

B1: P1-069063 (antibody, human IgG1, kappa, V domains shown)
VH: EVQLVESGGGLVQPGKSLRLSCAASGFTLEDYAMHWVRQAPGKGLEWVSGINWNSAEIGYADSVKGRFTISRDNAKNSLYLQMNSLRTEDTALYYCAKVPGYSGGWIDADDEWGQGTMVTVSS
VL: not shown
notes: IgG1.3
B2: P1-069069 (antibody, human IgG1, kappa, V domains shown)
VH: B1 VH with E30D, A56E, E112V
VL: not shown
notes: IgG1.3
B3: P1-069077 (antibody, human IgG1, kappa, V domains shown)
VH: B1 VH with Y32E, A56D, D110F, E112V
VL: not shown
notes: IgG1.3
B4: P1-069075 (antibody, human IgG1, kappa, V domains shown)
VH: B1 VH with N54D, G104H, D110E, E112V
VL: not shown
notes: IgG1.3
B5: P1-069065 (antibody, human IgG1, kappa, V domains shown)
VH: B1 VH with Y32E, A56D, E57D, D110F, E112V
VL: not shown
notes: IgG1.3
B6: P1-069071 (antibody, human IgG1, kappa, V domains shown)
VH: B1 VH with Y32E, E57D, G104E, D110F, E112V
VL: not shown
notes: IgG1.3
B7: P1-069067 (antibody, human IgG1, kappa, V domains shown)
VH: B1 VH with E30D, A56E
VL: not shown
notes: IgG1.3
B8: P1-077889 (P1-068748 H32Y D58Y) (antibody, V domains shown)
VH: QVQLVESGGGVVQPGRSLRLSCAASGFTFSHYAMHWVRQAPGKGLEWVAIIWYDGSNDYYADSVKGRFTISRDNSKNTLYLQMNSLRAEDTAVYYCARDSGFYDSYYFDYWGQGTLVTVSS
VL: EIVLTQSPATLSLSPGERATLSCRASQSVSSSYLAWYQQKPGQAPRLLIYDASNRATGIPARFSGSGSGTDFTLTISSLEPEDFATYYCQQYNSYPYTFGQGTKLEIK
notes: Reversion mutant of P1-068748 (Kabat names); captured on a Protein A chip
B9: P1-077893 (P1-068748 D57K D100S) (antibody, V domains shown)
VH: B8 VH with Y32H, D58K, Y59D, D104S
VL: B8 VL
notes: Reversion mutant of P1-068748 (Kabat names); the antibody was captured on a Protein A chip, so an Fc was present
B10: P1-077891 (P1-068748 H32Y D100S) (antibody, V domains shown)
VH: B8 VH with Y59D, D104S
VL: B8 VL
notes: as for B8
B11: P1-068757 (antibody, human IgG1, kappa, V domains shown)
VH: B1 VH with Y32E, A56E, D110E, E112D
VL: not shown
notes: also called P1-068757-9; 029 progeny
B12: P1-068765 (antibody, human IgG1, kappa, V domains shown)
VH: B1 VH with L29D, A56E, D110E, E112D
VL: not shown
notes: also called P1-068765-10; 029 progeny
B13: P1-068771 (antibody, human IgG1, kappa, V domains shown)
VH: B1 VH with Y32E, A56H, D110E, E112D
VL: not shown
notes: also called P1-068771-10; 029 progeny
B14: P1-068775 (antibody, human IgG1, kappa, V domains shown)
VH: B1 VH with Y32E, N52D, A56E, G104H, D110E, E112D
VL: not shown
notes: also called P1-068775-8; 029 progeny
B15: P1-070906 (P1-068767_D52N) (antibody, human IgG1, kappa, V domains shown)
VH: B1 VH with A56E, E57N, D110E, E112D
VL: not shown
notes: IgG1.3; also called P1-070906-6
B16: P1-070914 (P1-068767_E30D_D52N) (antibody, human IgG1, kappa, V domains shown)
VH: B1 VH with E30D, A56E, E57N, D110E, E112D
VL: not shown
notes: IgG1.3; also called P1-070914-3
B17: P1-070868 (P1-068761_E55A) (antibody, human IgG1, kappa, V domains shown)
VH: B1 VH with Y32E, G104H, D110E, E112V
VL: not shown
notes: IgG1.3; also called P1-070868-6
B18: P1-070916 (P1-068767_D52N_E55A) (antibody, human IgG1, kappa, V domains shown)
VH: B1 VH with E57N, D110E, E112D
VL: not shown
notes: IgG1.3; also called P1-070916-6
B19: P1-070908 (P1-068767_E55A) (antibody, human IgG1, kappa, V domains shown)
VH: B1 VH with N52D, E57N, D110E, E112D
VL: not shown
notes: IgG1.3; also called P1-070908-6
B20: P1-061520 (41F11 VK_A64G) (antibody, V domains shown)
VH: QVQLVESGGGLVKPGGSLRLSCAASGFTFSDYYMSWIRQAPGKGLEWVSYISNSGSPIYYADSVKGRFTISRDNAKNSLYLQMNSLRAEDTAVYYCARDLPGWYFDLWGRGTLVTVSS
VL: EIVLTQSPATLSLSPGERATLSCRASQSVSSYLAWYQQKPGQAPRLLIYDASNRATGIPARFSGSGSGTDFTLTISSLEPEDFAVYYCQQRNNWPRTFGQGTKVEIKR
notes: tied through the name 41F11 and the A64G change; also called P1-061520-21; VISTA.4.A64G

Biological target: T1, monovalent hVISTA-ECD (amino acids 32-193 of SEQ ID NO: 1 with a 7xHis tail) (human, UniProt Q9H7M9 33-193)
T1 construct: analyte of the SPR assays; also called huVISTA-His; human VISTA-ECD
Assay: SPR 37C, Ab on Protein A, hVISTA-ECD 50-5 nM, pH 6.0, average
Procedure: (§1) Binding of several preparations of each of the ‘029 progeny clones and of the parent ‘029 antibodies, formatted as IgG1.3 antibodies, to human VISTA at pH 6.0 and 7.4 was measured by Surface plasmon resonance (SPR). SPR analysis was performed to measure koff and KD binding affinity measurements for VISTA Abs at acidic and neutral pHs using a Biacore® T100 instrument (GE Healthcare). […] Antibodies were diluted to 25 nM in PBST pH 7.4, and were captured across active biosensor flow cells at 5 ul/min for 60 seconds. A concentration series of 50 - 5 nM monovalent hVISTA-ECD (SEQ ID NO: 325) was prepared in pH 7.4 and 6.0 running buffers, and was injected over the captured antibodies at 40 ul/min to measure association and dissociation. Two 15 second injections of 10 mM glycine pH 1.5 were used to regenerate the Protein A capture surface between assay cycles. Rate constants ka (kₒₙ) and kd (koff) were derived from reference flow cell and 0 nM blank-subtracted sensorgrams, and were fit to a 1:1 binding model in Biacore® T200 Evaluation Software v.2.0. The affinity constant, KD was calculated as the ratio of rate constants koff/kₒₙ for each VISTA antibody.

T1 sequence (Q9H7M9 other isoform, or with tags, fused parts or gaps limits assumed): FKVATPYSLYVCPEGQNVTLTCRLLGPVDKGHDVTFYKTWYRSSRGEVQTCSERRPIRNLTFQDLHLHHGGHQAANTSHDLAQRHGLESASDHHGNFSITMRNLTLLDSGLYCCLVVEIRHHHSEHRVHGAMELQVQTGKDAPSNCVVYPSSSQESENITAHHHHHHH

Row | Kd [nM] | koff [s⁻¹] | kon [M⁻¹ s⁻¹] | Binder
1 | 2.4 | 0.0044 | 1.9e+06 | B1
2 | 0.86 | 0.0012 | 1.4e+06 | B2
3 | 0.19 | 0.00012 | 630000 | B3
4 | 0.22 | 0.00029 | 1.3e+06 | B4
5 | 0.38 | 0.00022 | 570000 | B5
6 | 0.73 | 0.00051 | 700000 | B6
7 | 2.7 | 0.0045 | 1.7e+06 | B7

Biological target: T2, monovalent hVISTA-ECD with polyhistidine tail (SEQ ID NO: 325) (human, UniProt Q9H7M9 33-193)
T2 construct: also called hVISTA-ECD 6-His tag; human VISTA
Assay: SPR, mAb captured on Protein A chip, hVISTA injected, PBST pH 6.0, 37 C

T2 sequence (Q9H7M9 other isoform, or with tags, fused parts or gaps limits assumed): as above

Row | Kd [nM] | koff [s⁻¹] | kon [M⁻¹ s⁻¹] | Binder
8 | 130 | 0.022 | 180000 | B8
9 | 0.43 | 0.00058 | 1.4e+06 | B9
10 | 0.36 | 0.00099 | 2.7e+06 | B10

Biological target: T3, hVISTA-ECD 6-His tag (human, UniProt Q9H7M9 33-193)
T3 construct: also called monovalent hVISTA-ECD; human VISTA
Assay: SPR, Ab on Protein A, hVISTA analyte, pH 6.45

T3 sequence (Q9H7M9 other isoform, or with tags, fused parts or gaps limits assumed): as above

Row | Kd [nM] | koff [s⁻¹] | kon [M⁻¹ s⁻¹] | Binder
11 | 140 | 0.018 | 130000 | B11
12 | 420 | 0.013 | 31000 | B12
13 | 370 | 0.022 | 61000 | B13
14 | 220 | 0.017 | 77000 | B14

Biological target: T1, monovalent hVISTA-ECD (amino acids …)
Assay: SPR, pH 7.4 over pH 6.0
Procedure: (§2) Further binding kinetic experiments were performed at various pHs on VISTA antibodies described herein by SPR as generally described in Example 9 above. Antibodies were normalized to 50 nM concentration in PBST pH 7.4 and captured on a Protein A CM5 chip (ID 4931) by injecting for 45 seconds at a 5 µL/min flow rate. An 8-point human VISTA titration ([…]) was prepared in PBST at pH 7.4, 6.9, 6.45, and 6.0. Titrations were injected over the captured antibodies for 180 seconds at 30 µL/min. Sensorgrams were fit to a 1:1 binding model in T200 evaluation software and the kinetic constants were reported.
(§3) Each table reports the data at one of the four tested pHs (7.4, 6.9, 6.45, and 6.0, respectively). The 8-point hVISTA titration used in these assays was chosen to provide increased confidence in kinetic values reported at neutral pH conditions. A relatively stringent cutoff for non-binding was applied in this assay. Certain progeny of P1-061029 antibody (P1-068757, ‘759, ‘765, ‘771, and ‘775) show no binding to hVISTA at micromolar concentrations at pH 7.4, while ‘761 and ‘767 show no binding to hVISTA at 100 nM at pH 7.4 but do show binding to hVISTA at micromolar concentrations.

Row | 7.4 KD/ 6.0 KD | 7.4 kd/ 6.0 kd | Binder
15 | 731 | 15.3 | B15
16 | 396 | 14.6 | B16
17 | 625 | 18.9 | B17
18 | 563 | 19.4 | B18
19 | 34.5 | 8.6 | B19
20 | 0.1 | 0 | B20

Biological target: T3, hVISTA-ECD 6-His tag
Assay: SPR; kd at pH 6.45 over kd at pH 6.0 (head prints 7.4)
Procedure: as §2, §3

Row | 7.4 kd/ 6.0 kd | Binder
21 | 1.7 | B11
22 | 2.8 | B12
23 | 2.2 | B13
24 | 1.8 | B14

Biological target: T2, monovalent hVISTA-ECD with …
Assay: SPR, mAb captured on Protein A chip, hVISTA injected, PBST pH 7.4, 37 C

Row | Kd [nM] | koff [s⁻¹] | kon [M⁻¹ s⁻¹] | Binder
25 | 2400 | 0.073 | 31000 | B8
26 | 4.7 | 0.0019 | 400000 | B9
27 | 2.1 | 0.0025 | 1.2e+06 | B10

Biological target: T1, monovalent hVISTA-ECD (amino acids …)
Assay: SPR 37C, Ab on Protein A, hVISTA-ECD 50-5 nM, pH 7.4, average
Procedure: as §1

Row | Kd [nM] | koff [s⁻¹] | kon [M⁻¹ s⁻¹] | Binder
28 | 230 | 0.027 | 120000 | B1
29 | 84 | 0.0075 | 90000 | B2
30 | 31 | 0.0019 | 60000 | B3
31 | 18 | 0.0023 | 130000 | B4
32 | 39 | 0.0023 | 59000 | B5
33 | 93 | 0.004 | 43000 | B6
34 | 290 | 0.027 | 100000 | B7

Biological target: T1, monovalent hVISTA-ECD (amino acids …)
Assay: SPR, Ab on Protein A, hVISTA 100-7.8 nM, pH 7.4
Procedure: as §2

Row | Kd [nM] | koff [s⁻¹] | kon [M⁻¹ s⁻¹] | Binder
35 | 4400 | 0.029 | 6500 | B15
36 | 4200 | 0.035 | 8400 | B16
37 | 3400 | 0.044 | 13000 | B17
38 | 3700 | 0.038 | 10000 | B18
39 | 350 | 0.024 | 67000 | B19
40 | 1.42 | 0.000871 | 613000 | B20

Biological target: T3, hVISTA-ECD 6-His tag
Assay: SPR, Ab on Protein A, hVISTA analyte, pH 6.0

Row | Kd [nM] | koff [s⁻¹] | kon [M⁻¹ s⁻¹] | Binder
41 | 24 | 0.01 | 420000 | B11
42 | 29 | 0.0045 | 150000 | B12
43 | 32 | 0.01 | 320000 | B13
44 | 77 | 0.009 | 120000 | B14

Biological target: T3, hVISTA-ECD 6-His tag
Assay: SPR; KD at pH 6.45 over KD at pH 6.0 (head prints 7.4)

Row | 7.4 KD/ 6.0 KD | Binder
45 | 5.8 | B11
46 | 14.2 | B12
47 | 11.6 | B13
48 | 2.8 | B14
